Test results reported in patent publication US6413943 (CELL GENESYS, dated 2002).

Columns and labels:
Assay in all cases: cell-based or functional assay
[1] = target: CDK4/cyclin D1 complex (UniProt P11802 1-303; P24385 1-295)
[2] = target: CDC2/cyclin B complex (UniProt P06493 1-297)
[3] = target: CDK2/cyclin E complex (UniProt P24941 1-298)
[4] = target: CDK2/cyclin A complex (UniProt P24941 1-298)

Sequence of CDK4/cyclin D1 complex (P11802 whole entry, chain 1 of 2): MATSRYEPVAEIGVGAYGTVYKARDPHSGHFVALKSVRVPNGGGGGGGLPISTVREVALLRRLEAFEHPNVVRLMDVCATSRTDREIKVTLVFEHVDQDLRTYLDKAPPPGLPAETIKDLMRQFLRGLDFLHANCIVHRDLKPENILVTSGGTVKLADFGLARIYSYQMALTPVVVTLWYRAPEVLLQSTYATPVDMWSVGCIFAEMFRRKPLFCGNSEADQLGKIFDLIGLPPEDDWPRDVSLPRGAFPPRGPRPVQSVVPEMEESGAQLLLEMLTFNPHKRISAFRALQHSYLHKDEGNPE
Sequence of CDK4/cyclin D1 complex (P24385 whole entry, chain 2 of 2): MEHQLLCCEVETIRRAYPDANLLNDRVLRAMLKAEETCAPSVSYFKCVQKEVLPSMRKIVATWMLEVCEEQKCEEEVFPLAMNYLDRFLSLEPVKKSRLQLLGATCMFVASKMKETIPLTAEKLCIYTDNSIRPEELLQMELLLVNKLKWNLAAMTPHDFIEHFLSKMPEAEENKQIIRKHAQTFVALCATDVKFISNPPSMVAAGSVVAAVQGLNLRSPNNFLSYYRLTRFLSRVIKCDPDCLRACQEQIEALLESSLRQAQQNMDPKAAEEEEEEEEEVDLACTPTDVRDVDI
Sequence of CDC2/cyclin B complex (P06493 whole entry, one chain of several): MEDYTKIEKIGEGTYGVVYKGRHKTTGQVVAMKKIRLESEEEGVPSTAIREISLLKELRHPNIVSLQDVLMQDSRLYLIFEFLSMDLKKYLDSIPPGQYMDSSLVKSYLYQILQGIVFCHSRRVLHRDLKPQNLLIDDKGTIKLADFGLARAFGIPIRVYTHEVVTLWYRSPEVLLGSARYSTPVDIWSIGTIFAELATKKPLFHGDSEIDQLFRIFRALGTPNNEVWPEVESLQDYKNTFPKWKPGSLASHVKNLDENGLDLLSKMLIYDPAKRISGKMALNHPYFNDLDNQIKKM

IC50, in vitro kinase activity (GST-Rb phosphorylation) [1]: 250 nM
IC50, in vitro kinase activity (histone H1 phosphorylation) [2]: > 500 nM
IC50, in vitro kinase activity (GST-Rb phosphorylation) [3]: > 500 nM
IC50, in vitro kinase activity [4]: > 500 nM
B1: human p16 (other)
chain: MEPAAGSSMEPSADWLATAAARGRVEEVRALLEAGALPNAPNSYGRRPIQVMMMGSARVAELLLLHGAEPNCADPATLTRPVHDAAREGFLDTLVVLHRAGARLDVRDAWGRLPVDLAEELGHRDVARYLRAAAGGTRGSNHARIDAAEGPSDIPD
